Changes are numbered by the printed parent chain. Names may count otherwise.
T1: recombinant human activated Factor VII (FVIIa) (human, UniProt P08709 61-212; P08709 213-466, ten glutamate residues of the Gla domain may be gamma-carboxylated)
T1 construct: chains tethered by a disulfide bond; also called Factor VIIa; rFVIIa
T1 sequence 1: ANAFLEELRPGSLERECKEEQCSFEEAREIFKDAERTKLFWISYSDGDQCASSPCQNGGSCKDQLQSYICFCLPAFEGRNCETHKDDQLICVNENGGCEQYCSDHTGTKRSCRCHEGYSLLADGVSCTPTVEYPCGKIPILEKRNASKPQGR
T1 sequence 2: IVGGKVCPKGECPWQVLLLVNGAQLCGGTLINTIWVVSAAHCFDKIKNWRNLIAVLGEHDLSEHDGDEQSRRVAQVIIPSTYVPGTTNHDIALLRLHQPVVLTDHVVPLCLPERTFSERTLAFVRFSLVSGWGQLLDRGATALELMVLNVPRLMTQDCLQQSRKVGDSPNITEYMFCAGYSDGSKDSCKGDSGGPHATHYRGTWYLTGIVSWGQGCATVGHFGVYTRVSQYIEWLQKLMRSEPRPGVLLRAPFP

B1: VH SEQ ID NO 634 / VL SEQ ID NO 462 (antibody, IgG4, V domains shown)
VH: QVQLQESGPGLVKPSQTLSLTCTVSGYSISSDSAWSWIRQPPGKGLEWIGYIQYSGSTNYNPSLKSRVTISRDTSKNQFSLKLSSVTAADTAVYYCARSVNYYGNSFAVGYWGQGTLVTVSS
VL: EIVLTQSPATLSLSPGERATLSCRASQGVSDYLHWYQQKPGQAPRLLIKYASQPATGIPARFSGSGSGTDFTLTISSLEPEDFAVYYCQNGHSFPLTFGAGTKLEIK
notes: humanized 11F2; IgG4 S228P/kappa
B2: VH SEQ ID NO 642 / VL SEQ ID NO 310 (antibody, IgG4, V domains shown)
VH: B1 VH with Q53Y, R72V, L117S
VL: B1 VL with V29I, H34A, A100Q
notes: as for B1
B3: VH SEQ ID NO 642 / VL SEQ ID NO 486 (antibody, IgG4, V domains shown)
VH: B1 VH with Q53Y, R72V, L117S
VL: B1 VL with A84G, A100Q
notes: as for B1
B4: VH SEQ ID NO 642 / VL SEQ ID NO 462 (antibody, IgG4, V domains shown)
VH: B1 VH with Q53Y, R72V, L117S
VL: B1 VL
notes: as for B1
B5: VH SEQ ID NO 650 / VL SEQ ID NO 454 (antibody, IgG4, V domains shown)
VH: B1 VH with G45K, Y111P
VL: B1 VL with Q42E, A100Q
notes: as for B1
B6: VH SEQ ID NO 642 / VL SEQ ID NO 502 (antibody, IgG4, V domains shown)
VH: B1 VH with Q53Y, R72V, L117S
VL: B1 VL with A51T, A100Q
notes: as for B1
B7: VH SEQ ID NO 642 / VL SEQ ID NO 318 (antibody, IgG4, V domains shown)
VH: B1 VH with Q53Y, R72V, L117S
VL: B1 VL with V29I, Q42E, A51T, A100Q
notes: as for B1
B8: VH SEQ ID NO 642 / VL SEQ ID NO 334 (antibody, IgG4, V domains shown)
VH: B1 VH with Q53Y, R72V, L117S
VL: B1 VL with V29I, A100Q
notes: as for B1
B9: VH SEQ ID NO 650 / VL SEQ ID NO 342 (antibody, IgG4, V domains shown)
VH: B1 VH with G45K, Y111P
VL: B1 VL with V29I, A51T, T69R, I106L
notes: as for B1
B10: VH SEQ ID NO 650 / VL SEQ ID NO 406 (antibody, IgG4, V domains shown)
VH: B1 VH with G45K, Y111P
VL: B1 VL with H34A
notes: as for B1
B11: VH SEQ ID NO 642 / VL SEQ ID NO 494 (antibody, IgG4, V domains shown)
VH: B1 VH with Q53Y, R72V, L117S
VL: B1 VL with F83V, A100Q
notes: as for B1
B12: VH SEQ ID NO 642 / VL SEQ ID NO 478 (antibody, IgG4, V domains shown)
VH: B1 VH with Q53Y, R72V, L117S
VL: B1 VL with N90Q, A100Q
notes: as for B1
B13: VH SEQ ID NO 642 / VL SEQ ID NO 454 (antibody, IgG4, V domains shown)
VH: B1 VH with Q53Y, R72V, L117S
VL: B1 VL with Q42E, A100Q
notes: as for B1
B14: VH SEQ ID NO 650 / VL SEQ ID NO 478 (antibody, IgG4, V domains shown)
VH: B1 VH with G45K, Y111P
VL: B1 VL with N90Q, A100Q
notes: as for B1
B15: VH SEQ ID NO 650 / VL SEQ ID NO 374 (antibody, IgG4, V domains shown)
VH: B1 VH with G45K, Y111P
VL: B1 VL with V29L, H34A, A51T, A100Q
notes: as for B1
B16: VH SEQ ID NO 642 / VL SEQ ID NO 470 (antibody, IgG4, V domains shown)
VH: B1 VH with Q53Y, R72V, L117S
VL: B1 VL with A100Q
notes: as for B1
B17: VH SEQ ID NO 650 / VL SEQ ID NO 446 (antibody, IgG4, V domains shown)
VH: B1 VH with G45K, Y111P
VL: B1 VL with H34A, A51T, A100Q
notes: as for B1
B18: VH SEQ ID NO 642 / VL SEQ ID NO 438 (antibody, IgG4, V domains shown)
VH: B1 VH with Q53Y, R72V, L117S
VL: B1 VL with H34A, F83V, A100Q
notes: as for B1
B19: VH SEQ ID NO 650 / VL SEQ ID NO 366 (antibody, IgG4, V domains shown)
VH: B1 VH with G45K, Y111P
VL: B1 VL with V29L, H34A, Q42E, A100Q
notes: as for B1
B20: VH SEQ ID NO 642 / VL SEQ ID NO 350 (antibody, IgG4, V domains shown)
VH: B1 VH with Q53Y, R72V, L117S
VL: B1 VL with V29I, A51T, I106L
notes: as for B1
B21: VH SEQ ID NO 634 / VL SEQ ID NO 502 (antibody, IgG4, V domains shown)
VH: B1 VH
VL: B1 VL with A51T, A100Q
notes: as for B1
B22: VH SEQ ID NO 650 / VL SEQ ID NO 430 (antibody, IgG4, V domains shown)
VH: B1 VH with G45K, Y111P
VL: B1 VL with H34A, A84G, A100Q
notes: as for B1
B23: VH SEQ ID NO 634 / VL SEQ ID NO 486 (antibody, IgG4, V domains shown)
VH: B1 VH
VL: B1 VL with A84G, A100Q
notes: as for B1
B24: VH SEQ ID NO 642 / VL SEQ ID NO 358 (antibody, IgG4, V domains shown)
VH: B1 VH with Q53Y, R72V, L117S
VL: B1 VL with V29I, A51T, A100Q
notes: as for B1
B25: VH SEQ ID NO 650 / VL SEQ ID NO 422 (antibody, IgG4, V domains shown)
VH: B1 VH with G45K, Y111P
VL: B1 VL with H34A, N90Q, A100Q
notes: as for B1
B26: VH SEQ ID NO 650 / VL SEQ ID NO 462 (antibody, IgG4, V domains shown)
VH: B1 VH with G45K, Y111P
VL: B1 VL
notes: as for B1
B27: VH SEQ ID NO 650 / VL SEQ ID NO 334 (antibody, IgG4, V domains shown)
VH: B1 VH with G45K, Y111P
VL: B1 VL with V29I, A100Q
notes: as for B1
B28: VH SEQ ID NO 650 / VL SEQ ID NO 318 (antibody, IgG4, V domains shown)
VH: B1 VH with G45K, Y111P
VL: B1 VL with V29I, Q42E, A51T, A100Q
notes: as for B1
B29: VH SEQ ID NO 634 / VL SEQ ID NO 494 (antibody, IgG4, V domains shown)
VH: B1 VH
VL: B1 VL with F83V, A100Q
notes: as for B1
B30: VH SEQ ID NO 642 / VL SEQ ID NO 342 (antibody, IgG4, V domains shown)
VH: B1 VH with Q53Y, R72V, L117S
VL: B1 VL with V29I, A51T, T69R, I106L
notes: as for B1
B31: VH SEQ ID NO 650 / VL SEQ ID NO 390 (antibody, IgG4, V domains shown)
VH: B1 VH with G45K, Y111P
VL: B1 VL with H34A, Q42E, A100Q
notes: as for B1
B32: VH SEQ ID NO 650 / VL SEQ ID NO 414 (antibody, IgG4, V domains shown)
VH: B1 VH with G45K, Y111P
VL: B1 VL with H34A, A100Q
notes: as for B1
B33: VH SEQ ID NO 642 / VL SEQ ID NO 382 (antibody, IgG4, V domains shown)
VH: B1 VH with Q53Y, R72V, L117S
VL: B1 VL with V29L, Q42E, A100Q
notes: as for B1
B34: VH SEQ ID NO 650 / VL SEQ ID NO 398 (antibody, IgG4, V domains shown)
VH: B1 VH with G45K, Y111P
VL: B1 VL with H34A, Q42E, A51T, A100Q
notes: as for B1
B35: VH SEQ ID NO 650 / VL SEQ ID NO 438 (antibody, IgG4, V domains shown)
VH: B1 VH with G45K, Y111P
VL: B1 VL with H34A, F83V, A100Q
notes: as for B1
B36: VH SEQ ID NO 650 / VL SEQ ID NO 382 (antibody, IgG4, V domains shown)
VH: B1 VH with G45K, Y111P
VL: B1 VL with V29L, Q42E, A100Q
notes: as for B1
B37: VH SEQ ID NO 634 / VL SEQ ID NO 470 (antibody, IgG4, V domains shown)
VH: B1 VH
VL: B1 VL with A100Q
notes: as for B1
B38: VH SEQ ID NO 650 / VL SEQ ID NO 326 (antibody, IgG4, V domains shown)
VH: B1 VH with G45K, Y111P
VL: B1 VL with V29I, Q42E, A51T, A84G, I106L
notes: as for B1
B39: VH SEQ ID NO 634 / VL SEQ ID NO 478 (antibody, IgG4, V domains shown)
VH: B1 VH
VL: B1 VL with N90Q, A100Q
notes: as for B1
B40: VH SEQ ID NO 650 / VL SEQ ID NO 310 (antibody, IgG4, V domains shown)
VH: B1 VH with G45K, Y111P
VL: B1 VL with V29I, H34A, A100Q
notes: as for B1
B41: VH SEQ ID NO 650 / VL SEQ ID NO 358 (antibody, IgG4, V domains shown)
VH: B1 VH with G45K, Y111P
VL: B1 VL with V29I, A51T, A100Q
notes: as for B1
B42: VH SEQ ID NO 650 / VL SEQ ID NO 470 (antibody, IgG4, V domains shown)
VH: B1 VH with G45K, Y111P
VL: B1 VL with A100Q
notes: as for B1
B43: VH SEQ ID NO 642 / VL SEQ ID NO 430 (antibody, IgG4, V domains shown)
VH: B1 VH with Q53Y, R72V, L117S
VL: B1 VL with H34A, A84G, A100Q
notes: as for B1
B44: VH SEQ ID NO 642 / VL SEQ ID NO 326 (antibody, IgG4, V domains shown)
VH: B1 VH with Q53Y, R72V, L117S
VL: B1 VL with V29I, Q42E, A51T, A84G, I106L
notes: as for B1
B45: VH SEQ ID NO 650 / VL SEQ ID NO 350 (antibody, IgG4, V domains shown)
VH: B1 VH with G45K, Y111P
VL: B1 VL with V29I, A51T, I106L
notes: as for B1

Target: T1, recombinant human activated Factor VII …
Test: BLI (Fortebio)

| Kd [nM] | Binder |
| --- | --- |
| 1.2 | B1 |
| 1600 | B2 |
| 7.7 | B3 |
| 52 | B4 |
| 1.4 | B5 |
| 4.6 | B6 |
| 81 | B7 |
| 1000 | B8 |
| 1.6 | B9 |
| 180 | B10 |
| 10 | B11 |
| 11 | B12 |
| 25 | B13 |
| 3 | B14 |
| 46 | B15 |
| 47 | B16 |
| 39 | B17 |
| 33 | B18 |
| 35 | B19 |
| 120 | B20 |
| 1.3 | B21 |
| 28 | B22 |
| 1.4 | B23 |

| Kd [nM] | Binder |
| --- | --- |
| 320 | B24 |
| 2600 | B25 |
| 1.6 | B26 |
| 1.5 | B27 |
| 1.2 | B28 |
| 1.3 | B29 |
| 40 | B30 |
| 99 | B31 |
| 84 | B32 |
| 600 | B33 |
| 55 | B34 |
| 28 | B35 |
| 1.9 | B36 |
| 1 | B37 |
| 1.1 | B38 |
| 1.8 | B39 |
| 16 | B40 |
| 1.1 | B41 |
| 1.6 | B42 |
| 540 | B43 |
| 23 | B44 |
| 0.99 | B45 |
